Measured values reported in patent US20190315854A1 (BEIJING VDJBIO, published 2019).
Read-outs that look alike come from different tables or passages of the source.

T1: sIL-6R (soluble IL-6 receptor; SBH Sciences) (human, UniProt P08887 20-365)
T1 construct: also called human IL-6R
T1 sequence: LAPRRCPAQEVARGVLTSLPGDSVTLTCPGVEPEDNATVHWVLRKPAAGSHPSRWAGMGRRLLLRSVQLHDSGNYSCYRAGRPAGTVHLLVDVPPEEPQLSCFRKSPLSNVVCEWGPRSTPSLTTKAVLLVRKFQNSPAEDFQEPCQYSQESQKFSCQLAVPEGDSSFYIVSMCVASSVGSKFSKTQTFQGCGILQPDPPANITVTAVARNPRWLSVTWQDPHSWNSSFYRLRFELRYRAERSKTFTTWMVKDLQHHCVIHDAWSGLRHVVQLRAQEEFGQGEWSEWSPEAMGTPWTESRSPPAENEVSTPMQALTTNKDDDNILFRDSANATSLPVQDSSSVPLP


Experiments:
Test in all cases: SPR (BIAcore 3000), antibody on chip, sIL-6R analyte, 25 C
[1] = target: T1, sIL-6R (soluble IL-6 receptor; SBH …)
Experimental: (§1) All SPR measurements were performed on a BIAcore 3000 instrument (GE Biosciences, Piscataway, N.J.). BIAcore Software-BIAcore 3000 Control Software V3.2 was used for the operation and control of the BIAcore 3000 instrument. BiaEvaluation Software V4.1 was used for the analysis of SPR data from the BIAcore 3000 instrument and data was plotted using Graph Pad Prism Software Version 5. […] The indicated antibodies were used as the ligand for the construction of the reference channel of the chip. […] Each sample was injected for 3 min at a flow rate of 30 μL/min to allow for binding to chip-bound antibody. Next, binding buffer without analyte was sent over the chip at the same flow rate to allow for dissociation of bound analyte. After 500s, remaining bound analyte was removed by injecting regeneration solution (1M Formic acid). Data was analyzed by using the Kinetics Wizard and the manual fitting programs that are both included with the BiaEvaluation Software V4.1.

[2] = target: T1, sIL-6R (soluble IL-6 receptor; SBH …); remark: listed apart in the source
Experimental: as §1

[3] = target: T1, sIL-6R (soluble IL-6 receptor; SBH …); remark: listed apart in the source
Experimental: as §1

| Kd [1] | Relative Affinity [1] | koff [1] | kon [1] | Kd [2] | Relative Affinity [2] | koff [2] | kon [2] | Kd [3] | Relative Affinity [3] | koff [3] | kon [3] | Binder |
| --- | --- | --- | --- | --- | --- | --- | --- | --- | --- | --- | --- | --- |
| 0.156 nM | 11 fold vs 25 (Tocilizumab) | 5.99e-05 s⁻¹ | 385000 M⁻¹ s⁻¹ | 0.1 nM | 13.4 fold vs 25 (Tocilizumab) | 2.92e-05 s⁻¹ | 292000 M⁻¹ s⁻¹ |  |  |  |  | 31# (antibody, human IgG1, kappa, V domains shown, also called Sample # 31) VH: QVQLQESGPGLVRPSQTLSLTCTVSGYSITSDHAWSWVRQPPGRGLEWIGFISYSGMTTYNPSLKSRVTMLRDTSKNQFSLRLSSVTAADTAVYYCARSLARITAMDYWGQGSLVTVSS VL: DIQMTQSPSSLSASVGDRVTITCRASQDISSYLNWYQQKPGKAPKLLIYYTSRLHSGVPSRFSGSGSGTDFTFTISSLQPEDIATYYCQQGNTLPYTFGQGTKVEIKR |
|  |  |  |  |  |  |  |  | 0.42 nM | 6.8 fold vs 25 (Tocilizumab) | 5.72e-05 s⁻¹ | 136000 M⁻¹ s⁻¹ | 51# (antibody, human IgG1, kappa, V domains shown, also called Sample # 51) VH: QVQLQESGPGLVRPSQTLSLTCTVSGYSITSDHAWSWVRQPPGRGLEWIGYISYSGITTYNPSLKSRVTMLRDTSKNQFSLRLSSVTAADTAVYYCARCLARMTAMDYWGQGSLVTVSS VL: DIQMTQSPSSLSASVGDRVTITCRASQDISSYLNWYQQKPGKAPKLLIYYTSRLHSGVPSRFSGSGSGTDFTFTISSLQPEDIATYYCQQGNTLPYTFGQGTKVEIKR |
|  |  |  |  |  |  |  |  | 1.65 nM | 1.7 fold vs 25 (Tocilizumab) | 0.000218 s⁻¹ | 132000 M⁻¹ s⁻¹ | 49# (antibody, human IgG1, kappa, V domains shown, also called Sample # 49) VH: QVQLQESGPGLVRPSQTLSLTCTVSGYSITSDHAWSWVRQPPGRGLEWIGYISYSGITTYNASLKSRVTMLRDTSKNQFSLRLSSVTAADTAVYYCARSLARTTAMDYWGQGSLVTVSS VL: DIQMTQSPSSLSASVGDRVTITCRASQDISSYLNWYQQKPGKAPKLLIYYTSRLHSGVPSRFSGSGSGTDFTFTISSLQPEDIATYYCQQGNTLPYTFGQGTKVEIKR |
|  |  |  |  |  |  |  |  | 0.243 nM | 11.7 fold vs 25 (Tocilizumab) | 5.59e-05 s⁻¹ | 230000 M⁻¹ s⁻¹ | 56# (antibody, human IgG1, kappa, V domains shown, also called Sample # 56) VH: QVQLQESGPGLVRPSQTLSLTCTVSGYSITSDHAWSWVRQPPGRGLEWIGFISYSGMITYNPSLKSRVTMLRDTSKNQFSLRLSSVTAADTAVYYCARSLARITAMDYWGQGSLVTVSS VL: DIQMTQSPSSLSASVGDRVTITCRASQDISSYLNWYQQKPGKAPKLLIYYTSRLHSGVPSRFSGSGSGTDFTFTISSLQPEDIATYYCQQGNTLPYTFGQGTKVEIKR |
| 0.408 nM | 4.2 fold vs 25 (Tocilizumab) | 0.000148 s⁻¹ | 363000 M⁻¹ s⁻¹ | 0.268 nM | 5 fold vs 25 (Tocilizumab) | 7.61e-05 s⁻¹ | 284000 M⁻¹ s⁻¹ |  |  |  |  | 28# (antibody, human IgG1, kappa, V domains shown, also called Sample # 28) VH: QVQLQESGPGLVRPSQTLSLTCTVSGYSITSDHAWSWVRQPPGRGLEWIGFISYSGMTTYNPSLKSRVTMLRDTSKNQFSLRLSSVTAADTAVYYCARSLARTTAMDYWGQGSLVTVSS VL: DIQMTQSPSSLSASVGDRVTITCRASQDISSYLNWYQQKPGKAPKLLIYYTSRLHSGVPSRFSGSGSGTDFTFTISSLQPEDIATYYCQQGNTLPYTFGQGTKVEIKR |
| 0.255 nM | 6.7 fold vs 25 (Tocilizumab) | 8.33e-05 s⁻¹ | 327000 M⁻¹ s⁻¹ | 0.235 nM | 5.7 fold vs 25 (Tocilizumab) | 7.03e-05 s⁻¹ | 299000 M⁻¹ s⁻¹ |  |  |  |  | 30# (antibody, human IgG1, kappa, V domains shown, also called Sample # 30) VH: QVQLQESGPGLVRPSQTLSLTCTVSGYSITSDHAWSWVRQPPGRGLEWIGFISYSGMTTYNPSLKSRVTMLRDTSKNQFSLRLSSVTAADTAVYYCARCLARTTAMDYWGQGSLVTVSS VL: DIQMTQSPSSLSASVGDRVTITCRASQDISSYLNWYQQKPGKAPKLLIYYTSRLHSGVPSRFSGSGSGTDFTFTISSLQPEDIATYYCQQGNTLPYTFGQGTKVEIKR |
|  |  |  |  |  |  |  |  | 0.205 nM | 13.9 fold vs 25 (Tocilizumab) | 4.59e-05 s⁻¹ | 224000 M⁻¹ s⁻¹ | 60# (antibody, human IgG1, kappa, V domains shown, also called Sample # 60) VH: QVQLQESGPGLVRPSQTLSLTCTVSGYSITSDHAWSWVRQPPGRGLEWIGFISYSGMTTYNPSLKSRVTMLRDTSKNQFSLRLSSVTAADTAVYYCARSLARITAMDYWGQGSLVTVSS VL: DIQMTQSPSSLSASVGDRVTITCRASQDISSYLNWYQQKPGKAPKLLIYYTSRLHSGVPSRFSGSGSGTDFTFTISSLQPEDIATYYCQQGNTLPYTFGQGTKVEIKR |
| 0.126 nM | 13.6 fold vs 25 (Tocilizumab) | 4.27e-05 s⁻¹ | 339000 M⁻¹ s⁻¹ | 0.102 nM | 13.1 fold vs 25 (Tocilizumab) | 3.46e-05 s⁻¹ | 339000 M⁻¹ s⁻¹ |  |  |  |  | 27# (antibody, human IgG1, kappa, V domains shown, also called Sample # 27) VH: QVQLQESGPGLVRPSQTLSLTCTVSGYSITSDHAWSWVRQPPGRGLEWIGFISYSGMTTYNPSLKSRVTMLRDTSKNQFSLRLSSVTAADTAVYYCARSLARATAMDYWGQGSLVTVSS VL: DIQMTQSPSSLSASVGDRVTITCRASQDISSYLNWYQQKPGKAPKLLIYYTSRLHSGVPSRFSGSGSGTDFTFTISSLQPEDIATYYCQQGNTLPYTFGQGTKVEIKR |

Continued, binder first:

| Binder | Kd [1] | Relative Affinity [1] | koff [1] | kon [1] | Kd [2] | Relative Affinity [2] | koff [2] | kon [2] | Kd [3] | Relative Affinity [3] | koff [3] | kon [3] |
| --- | --- | --- | --- | --- | --- | --- | --- | --- | --- | --- | --- | --- |
| 14# (antibody, human IgG1, kappa, V domains shown, also called Sample # 14) VH: QVQLQESGPGLVRPSQTLSLTCTVSGYSITSDHAWSWVRQPPGRGLEWIGFISYSGITTYNPSLKSRVTMLRDTSKNQFSLRLSSVTAADTAVYYCARSLARITAMDYWGQGSLVTVSS VL: DIQMTQSPSSLSASVGDRVTITCRASQDISSYLNWYQQKPGKAPKLLIYYTSRLHSGVPSRFSGSGSGTDFTFTISSLQPEDIATYYCQQGNTLPYTFGQGTKVEIKR | 0.261 nM | 6.6 fold vs 25 (Tocilizumab) | 9.75e-05 s⁻¹ | 374000 M⁻¹ s⁻¹ | 0.181 nM | 7.4 fold vs 25 (Tocilizumab) | 5.69e-05 s⁻¹ | 314000 M⁻¹ s⁻¹ |  |  |  |  |
| 17# (antibody, human IgG1, kappa, V domains shown, also called Sample # 17) VH: QVQLQESGPGLVRPSQTLSLTCTVSGYSITSDHAWSWVRQPPGRGLEWIGFISYSGITTYNPSLKSRVTMLRDTSKNQFSLRLSSVTAADTAVYYCARCLARTTAMDYWGQGSLVTVSS VL: DIQMTQSPSSLSASVGDRVTITCRASQDISSYLNWYQQKPGKAPKLLIYYTSRLHSGVPSRFSGSGSGTDFTFTISSLQPEDIATYYCQQGNTLPYTFGQGTKVEIKR | 0.354 nM | 4.8 fold vs 25 (Tocilizumab) | 0.000117 s⁻¹ | 331000 M⁻¹ s⁻¹ | 0.304 nM | 4.4 fold vs 25 (Tocilizumab) | 8.71e-05 s⁻¹ | 287000 M⁻¹ s⁻¹ |  |  |  |  |
| 24# (antibody, human IgG1, kappa, V domains shown, also called Sample # 24) VH: QVQLQESGPGLVRPSQTLSLTCTVSGYSITSDHAWSWVRQPPGRGLEWIGYISYSGITTYNPSLKSRVTMLRDTSKNQFSLRLSSVTAADTAVYYCARCLARITAMDYWGQGSLVTVSS VL: DIQMTQSPSSLSASVGDRVTITCRASQDISSYLNWYQQKPGKAPKLLIYYTSRLHSGVPSRFSGSGSGTDFTFTISSLQPEDIATYYCQQGNTLPYTFGQGTKVEIKR | 0.317 nM | 5.4 fold vs 25 (Tocilizumab) | 7.99e-05 s⁻¹ | 252000 M⁻¹ s⁻¹ | 0.281 nM | 4.8 fold vs 25 (Tocilizumab) | 7.13e-05 s⁻¹ | 254000 M⁻¹ s⁻¹ |  |  |  |  |
| 16# (antibody, human IgG1, kappa, V domains shown, also called Sample # 16) VH: QVQLQESGPGLVRPSQTLSLTCTVSGYSITSDHAWSWVRQPPGRGLEWIGFISYSGITTYNPSLKSRVTMLRDTSKNQFSLRLSSVTAADTAVYYCARSLARITAMDYWGQGSLVTVSS VL: DIQMTQSPSSLSASVGDRVTITCRASQDISSYLNWYQQKPGKAPKLLIYYTSRLHSGVPSRFSGSGSGTDFTFTISSLQPEDIATYYCQQGNTLPYTFGQGTKVEIKR | 0.187 nM | 9.1 fold vs 25 (Tocilizumab) | 6.3e-05 s⁻¹ | 336000 M⁻¹ s⁻¹ | 0.136 nM | 9.8 fold vs 25 (Tocilizumab) | 4.04e-05 s⁻¹ | 296000 M⁻¹ s⁻¹ |  |  |  |  |
| 18# (antibody, human IgG1, kappa, V domains shown, also called Sample # 18) VH: QVQLQESGPGLVRPSQTLSLTCTVSGYSITSDHAWSWVRQPPGRGLEWIGFISYSGITTYNPSLKSRVTMLRDTSKNQFSLRLSSVTAADTAVYYCARCLARITAMDYWGQGSLVTVSS VL: DIQMTQSPSSLSASVGDRVTITCRASQDISSYLNWYQQKPGKAPKLLIYYTSRLHSGVPSRFSGSGSGTDFTFTISSLQPEDIATYYCQQGNTLPYTFGQGTKVEIKR | 0.167 nM | 10.2 fold vs 25 (Tocilizumab) | 5.42e-05 s⁻¹ | 325000 M⁻¹ s⁻¹ | 0.141 nM | 9.5 fold vs 25 (Tocilizumab) | 4.73e-05 s⁻¹ | 335000 M⁻¹ s⁻¹ |  |  |  |  |
| 15# (antibody, human IgG1, kappa, V domains shown, also called Sample # 15) VH: QVQLQESGPGLVRPSQTLSLTCTVSGYSITSDHAWSWVRQPPGRGLEWIGFISYSGITTYNPSLKSRVTMLRDTSKNQFSLRLSSVTAADTAVYYCARCLARITAMDYWGQGSLVTVSS VL: DIQMTQSPSSLSASVGDRVTITCRASQDISSYLNWYQQKPGKAPKLLIYYTSRLHSGVPSRFSGSGSGTDFTFTISSLQPEDIATYYCQQGNTLPYTFGQGTKVEIKR | 0.2 nM | 8.6 fold vs 25 (Tocilizumab) | 5.97e-05 s⁻¹ | 298000 M⁻¹ s⁻¹ | 0.145 nM | 9.2 fold vs 25 (Tocilizumab) | 4.49e-05 s⁻¹ | 310000 M⁻¹ s⁻¹ |  |  |  |  |
